According to patent US20180085456A1 (AFFIMED, published 2018):

Molecular target: T1, CD30 on CD30+ lymphoma cells (KARPAS-299) (UniProt P28908 19-595, limits assumed)
T1 sequence (looked up): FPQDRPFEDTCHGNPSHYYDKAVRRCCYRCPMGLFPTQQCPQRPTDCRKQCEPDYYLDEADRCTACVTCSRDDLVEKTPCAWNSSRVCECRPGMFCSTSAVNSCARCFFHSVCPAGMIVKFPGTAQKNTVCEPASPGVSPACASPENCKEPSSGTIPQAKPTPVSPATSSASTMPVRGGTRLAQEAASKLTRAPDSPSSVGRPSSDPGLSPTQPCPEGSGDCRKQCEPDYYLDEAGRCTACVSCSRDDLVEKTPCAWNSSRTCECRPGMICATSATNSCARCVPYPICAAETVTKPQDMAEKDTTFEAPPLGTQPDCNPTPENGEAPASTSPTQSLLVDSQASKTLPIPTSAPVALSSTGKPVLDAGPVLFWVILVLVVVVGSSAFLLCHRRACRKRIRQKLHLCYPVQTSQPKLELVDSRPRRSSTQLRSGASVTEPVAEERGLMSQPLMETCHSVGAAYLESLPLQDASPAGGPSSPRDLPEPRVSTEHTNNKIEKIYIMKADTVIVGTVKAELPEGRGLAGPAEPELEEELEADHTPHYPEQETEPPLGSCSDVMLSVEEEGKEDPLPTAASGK
Assay: cell-based or functional assay

B1: bispecific CD30/CD16A tandem diabody (AFM13) (bispecific antibody)
chain: QVQLVQSGAEVKKPGESLKVSCKASGYTFTSYYMHWVRQAPGQGLEWMGIINPSGGSTSYAQKFQGRVTMTRDTSTSTVYMELSSLRSEDTAVYYCARGSAYYYDFADYWGQGTLVTVSSGGSGGSGGSDIVMTQSPKFMSTSVGDRVTVTCKASQNVGTNVAWFQQKPGQSPKVLIYSASYRYSGVPDRFTGSGSGTDFTLTISNVQSEDLAEYFCQQYHTYPLTFGGGTKLEINGGSGGSGGSQVQLQQSGAELARPGASVKMSCKASGYTFTTYTIHWVRQRPGHDLEWIGYINPSSGYSDYNQNFKGKTTLTADKSSNTAYMQLNSLTSEDSAVYYCARRADYGNYEYTWFAYWGQGTTVTVSSGGSGGSGGSSYVLTQPSSVSVAPGQTATISCGGHNIGSKNVHWYQQRPGQSPVLVIYQDNKRPSGIPERFSGSNSGNTATLTISGTQAMDEADYYCQVWDNYSVLFGGGTKLTVL
  potency and efficacy toward target and effector cells (EC50): 15 pM
